From PMC9352680, “A comprehensive thermodynamic model for RNA binding by the Saccharomyces cerevisiae Pumilio protein PUF4”

biological target: T1, PUF4 RNA-binding domain (Saccharomyces cerevisiae, UniProt P25339 537-888); test: Mg; RNA-MaP; 20 mM Na-HEPES pH 7.4, 30 mM KOAc, 0.75 mM MgCl2, 0.1% Tween-20, 5% glycerol, 0.1 mg/mL BSA, 2 mM DTT; 25 C; 0.0125-409.6 nM protein; conditions: tags: N-His6-TEV cleaved; C-SNAP kept, Cy3B-labelled; label: tethered on chip by stalled RNA polymerase
T1 sequence: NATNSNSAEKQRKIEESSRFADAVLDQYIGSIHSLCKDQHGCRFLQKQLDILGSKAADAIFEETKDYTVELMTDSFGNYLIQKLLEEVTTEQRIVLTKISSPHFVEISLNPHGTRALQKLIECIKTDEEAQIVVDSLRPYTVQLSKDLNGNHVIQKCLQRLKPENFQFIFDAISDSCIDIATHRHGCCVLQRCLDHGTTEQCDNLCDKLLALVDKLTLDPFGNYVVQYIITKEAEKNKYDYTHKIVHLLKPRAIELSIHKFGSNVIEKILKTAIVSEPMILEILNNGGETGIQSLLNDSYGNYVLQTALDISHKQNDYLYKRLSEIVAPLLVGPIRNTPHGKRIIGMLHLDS

| Binder | Kd [nM] |
| --- | --- |
| UCUCUUUGUAUGCCAUCUCUU (ssRNA) [Ic_S1_P4E.1_K4.1_C4.1_H4.1_A4.1_[A6G]_[T7C]_F4.1_[T8C]_T4.1] | 472 |
| UCUCUUUGUAUGUCCUCUCUU (ssRNA) [Ic_S1_P4E.1_K4.1_C4.1_H4.1_A4.1_[A6G]_F4.1_[T8C]_[A9C]_T4.1] | 564 |
| UCUCUUUGUAAAUAGUCUCUU (ssRNA) [Ic_S1_P4E.1_K4.1_C4.1_H4.1_A4.1_[T5A]_F4.1_[T8A]_[A9G]_T4.1] | 11.5 |
| UCUCUUUGUACACAUCUCUU (ssRNA) [Ic_S1_P3E.1_K3.1_C3.1_H3.1_A3.1_[T5C]_F3.1_[T7C]_T3.1] | 46.1 |
| UCUCUUUGUAUGCAGUCUCUU (ssRNA) [Ic_S1_P4E.1_K4.1_C4.1_H4.1_A4.1_[A6G]_[T7C]_F4.1_[T8A]_[A9G]_T4.1] | > 2300 |
| UCUCUUUGUAAAAUUUCUCUU (ssRNA) [Ic_S1_P4E.1_K4.1_C4.1_H4.1_A4.1_[T5A]_[T7A]_F4.1_[A9T]_T4.1] | 33.5 |
| UCUCUUUGUAUCGAUCUCUU (ssRNA) [Ib_S1_P3E.1_K3.1_C3.1_H3.1_A3.1_[A6C]_F3.1_[T7G]_T3.1] | 1020 |
| UCUCUUUGUAUGGUCUCUCUU (ssRNA) [Ic_S1_P4E.1_K4.1_C4.1_H4.1_A4.1_[A6G]_[T7G]_F4.1_[A9C]_T4.1] | 1260 |
| UCUCUUUGUAUGCGCUCUCUU (ssRNA) [Ic_S1_P4E.1_K4.1_C4.1_H4.1_A4.1_[A6G]_[T7C]_F4.1_[T8G]_[A9C]_T4.1] | > 2300 |
| UCUCUUUGUAUGGUUUCUCUU (ssRNA) [Ic_S1_P4E.1_K4.1_C4.1_H4.1_A4.1_[A6G]_[T7G]_F4.1_[A9T]_T4.1] | 542 |
| UCUCUUUGUAUGGCCUCUCUU (ssRNA) [Ic_S1_P4E.1_K4.1_C4.1_H4.1_A4.1_[A6G]_[T7G]_F4.1_[T8C]_[A9C]_T4.1] | > 2300 |
| UCUCUUUGUAUGUGGUCUCUU (ssRNA) [Ic_S1_P4E.1_K4.1_C4.1_H4.1_A4.1_[A6G]_F4.1_[T8G]_[A9G]_T4.1] | 1000 |
| UCUCUUUGUAAACACUCUCUU (ssRNA) [Ic_S1_P4E.1_K4.1_C4.1_H4.1_A4.1_[T5A]_[T7C]_F4.1_[T8A]_[A9C]_T4.1] | 565 |
| UCUCUUUGUAAAAUCUCUCUU (ssRNA) [Ic_S1_P4E.1_K4.1_C4.1_H4.1_A4.1_[T5A]_[T7A]_F4.1_[A9C]_T4.1] | 54.4 |
| UCUCUUUGUAAACAUUCUCUU (ssRNA) [Ic_S1_P4E.1_K4.1_C4.1_H4.1_A4.1_[T5A]_[T7C]_F4.1_[T8A]_[A9T]_T4.1] | 165 |
| UCUCUUUGUAUGGCGUCUCUU (ssRNA) [Ic_S1_P4E.1_K4.1_C4.1_H4.1_A4.1_[A6G]_[T7G]_F4.1_[T8C]_[A9G]_T4.1] | > 2300 |
| UCUCUUUGUAAAACAUCUCUU (ssRNA) [Ic_S1_P4E.1_K4.1_C4.1_H4.1_A4.1_[T5A]_[T7A]_F4.1_[T8C]_T4.1] | 41.1 |
| UCUCUUUGUAAAACUUCUCUU (ssRNA) [Ic_S1_P4E.1_K4.1_C4.1_H4.1_A4.1_[T5A]_[T7A]_F4.1_[T8C]_[A9T]_T4.1] | 106 |
| UCUCUUUGUAUGCUCUCUCUU (ssRNA) [Ic_S1_P4E.1_K4.1_C4.1_H4.1_A4.1_[A6G]_[T7C]_F4.1_[A9C]_T4.1] | 677 |
| UCUCUUUGUAUGACUUCUCUU (ssRNA) [Ic_S1_P4E.1_K4.1_C4.1_H4.1_A4.1_[A6G]_[T7A]_F4.1_[T8C]_[A9T]_T4.1] | 804 |
| UCUCUUUGUAAAAACUCUCUU (ssRNA) [Ic_S1_P4E.1_K4.1_C4.1_H4.1_A4.1_[T5A]_[T7A]_F4.1_[T8A]_[A9C]_T4.1] | 526 |
| UCUCUUUGUAUGCAAUCUCUU (ssRNA) [Ic_S1_P4E.1_K4.1_C4.1_H4.1_A4.1_[A6G]_[T7C]_F4.1_[T8A]_T4.1] | 516 |
| UCUCUUUGUAAAAUGUCUCUU (ssRNA) [Ic_S1_P4E.1_K4.1_C4.1_H4.1_A4.1_[T5A]_[T7A]_F4.1_[A9G]_T4.1] | 27.1 |
| UCUCUUUGUAAAUACUCUCUU (ssRNA) [Ic_S1_P4E.1_K4.1_C4.1_H4.1_A4.1_[T5A]_F4.1_[T8A]_[A9C]_T4.1] | 36.7 |
| UCUCUUUGUAAACUGUCUCUU (ssRNA) [Ic_S1_P4E.1_K4.1_C4.1_H4.1_A4.1_[T5A]_[T7C]_F4.1_[A9G]_T4.1] | 17.2 |
| UCUCUUUGUAUGUAUUCUCUU (ssRNA) [Ic_S1_P4E.1_K4.1_C4.1_H4.1_A4.1_[A6G]_F4.1_[T8A]_[A9T]_T4.1] | 71.2 |

| Binder | Kd [nM] |
| --- | --- |
| UCUCUUUGUAAACAUCUCUU (ssRNA) [Ib_S1_P3E.1_K3.1_C3.1_H3.1_A3.1_[T5A]_F3.1_[T7C]_T3.1] | 424 |
| UCUCUUUGUAAACAGUCUCUU (ssRNA) [Ic_S1_P4E.1_K4.1_C4.1_H4.1_A4.1_[T5A]_[T7C]_F4.1_[T8A]_[A9G]_T4.1] | 508 |
| UCUCUUUGUAAAAGCUCUCUU (ssRNA) [Ic_S1_P4E.1_K4.1_C4.1_H4.1_A4.1_[T5A]_[T7A]_F4.1_[T8G]_[A9C]_T4.1] | 2280 |
| UCUCUUUGUAAAUCCUCUCUU (ssRNA) [Ic_S1_P4E.1_K4.1_C4.1_H4.1_A4.1_[T5A]_F4.1_[T8C]_[A9C]_T4.1] | 368 |
| UCUCUUUGUAAACUUUCUCUU (ssRNA) [Ic_S1_P4E.1_K4.1_C4.1_H4.1_A4.1_[T5A]_[T7C]_F4.1_[A9T]_T4.1] | 24.7 |
| UCUCUUUGUAAAAAUUCUCUU (ssRNA) [Ic_S1_P4E.1_K4.1_C4.1_H4.1_A4.1_[T5A]_[T7A]_F4.1_[T8A]_[A9T]_T4.1] | 373 |
| UCUCUUUGUAUGAUGUCUCUU (ssRNA) [Ic_S1_P4E.1_K4.1_C4.1_H4.1_A4.1_[A6G]_[T7A]_F4.1_[A9G]_T4.1] | 56.7 |
| UCUCUUUGUACAAAUCUCUU (ssRNA) [Ic_S1_P3E.1_K3.1_C3.1_H3.1_A3.1_[T5C]_F3.1_[T7A]_T3.1] | 100 |
| UCUCUUUGUAUCGGUUCUCUU (ssRNA) [Ic_S1_P4E.1_K4.1_C4.1_H4.1_A4.1_[A6C]_[T7G]_F4.1_[T8G]_[A9T]_T4.1] | 938 |
| UCUCUUUGUAAAAAUCUCUU (ssRNA) [Ic_S1_P3E.1_K3.1_C3.1_H3.1_A3.1_[T5A]_F3.1_[T7A]_T3.1] | 367 |
| UCUCUUUGUAAAACCUCUCUU (ssRNA) [Ic_S1_P4E.1_K4.1_C4.1_H4.1_A4.1_[T5A]_[T7A]_F4.1_[T8C]_[A9C]_T4.1] | 523 |
| UCUCUUUGUAUGCAUUCUCUU (ssRNA) [Ic_S1_P4E.1_K4.1_C4.1_H4.1_A4.1_[A6G]_[T7C]_F4.1_[T8A]_[A9T]_T4.1] | 565 |
| UCUCUUUGUAUGUAGUCUCUU (ssRNA) [Ic_S1_P4E.1_K4.1_C4.1_H4.1_A4.1_[A6G]_F4.1_[T8A]_[A9G]_T4.1] | 106 |
| UCUCUUUGUAUGUACUCUCUU (ssRNA) [Ic_S1_P4E.1_K4.1_C4.1_H4.1_A4.1_[A6G]_F4.1_[T8A]_[A9C]_T4.1] | 41.5 |
| UCUCUUUGUAUCGGCUCUCUU (ssRNA) [Ic_S1_P4E.1_K4.1_C4.1_H4.1_A4.1_[A6C]_[T7G]_F4.1_[T8G]_[A9C]_T4.1] | 2020 |
| UCUCUUUGUAAACAAUCUCUU (ssRNA) [Ic_S1_P4E.1_K4.1_C4.1_H4.1_A4.1_[T5A]_[T7C]_F4.1_[T8A]_T4.1] | 57.4 |
| UCUCUUUGUAUGAUCUCUCUU (ssRNA) [Ic_S1_P4E.1_K4.1_C4.1_H4.1_A4.1_[A6G]_[T7A]_F4.1_[A9C]_T4.1] | 148 |
| UCUCUUUGUAUGGCUUCUCUU (ssRNA) [Ic_S1_P4E.1_K4.1_C4.1_H4.1_A4.1_[A6G]_[T7G]_F4.1_[T8C]_[A9T]_T4.1] | 1630 |
| UCUCUUUGUAUGCGUUCUCUU (ssRNA) [Ic_S1_P4E.1_K4.1_C4.1_H4.1_A4.1_[A6G]_[T7C]_F4.1_[T8G]_[A9T]_T4.1] | 1210 |
| UCUCUUUGUAUGUGUUCUCUU (ssRNA) [Ic_S1_P4E.1_K4.1_C4.1_H4.1_A4.1_[A6G]_F4.1_[T8G]_[A9T]_T4.1] | 92.5 |
| UCUCUUUGUAAAUGCUCUCUU (ssRNA) [Ic_S1_P4E.1_K4.1_C4.1_H4.1_A4.1_[T5A]_F4.1_[T8G]_[A9C]_T4.1] | 377 |
| UCUCUUUGUAUGCUGUCUCUU (ssRNA) [Ic_S1_P4E.1_K4.1_C4.1_H4.1_A4.1_[A6G]_[T7C]_F4.1_[A9G]_T4.1] | 685 |
| UCUCUUUGUAAAUAUUCUCUU (ssRNA) [Ic_S1_P4E.1_K4.1_C4.1_H4.1_A4.1_[T5A]_F4.1_[T8A]_[A9T]_T4.1] | 26.2 |
| UCUCUUUGUAUGCUUUCUCUU (ssRNA) [Ic_S1_P4E.1_K4.1_C4.1_H4.1_A4.1_[A6G]_[T7C]_F4.1_[A9T]_T4.1] | 96.1 |
| UCUCUUUGUAAACUCUCUCUU (ssRNA) [Ic_S1_P4E.1_K4.1_C4.1_H4.1_A4.1_[T5A]_[T7C]_F4.1_[A9C]_T4.1] | 33.8 |
